Laboratory results published in patent US20240368223A1 (KAGOSHIMA UNIVERSITY, published 2024).
Each block holds one binder with its values, some of them ahead of it. Bridges are numbered along the chain shown (N, C = ends). Where no end group is shown, it is not given here. [ ]: non-standard residue; d: D form. hCys = N[C@@H](CCS)C(=O)O

What was measured:
bovine serum albumin = target: T1, bovine serum albumin (bovine, UniProt P02769 25-607); assay: size exclusion chromatography with fluorescence detection at 565 nm
T1 construct: also called BSA
T1 sequence (P02769 25-607 limits assumed): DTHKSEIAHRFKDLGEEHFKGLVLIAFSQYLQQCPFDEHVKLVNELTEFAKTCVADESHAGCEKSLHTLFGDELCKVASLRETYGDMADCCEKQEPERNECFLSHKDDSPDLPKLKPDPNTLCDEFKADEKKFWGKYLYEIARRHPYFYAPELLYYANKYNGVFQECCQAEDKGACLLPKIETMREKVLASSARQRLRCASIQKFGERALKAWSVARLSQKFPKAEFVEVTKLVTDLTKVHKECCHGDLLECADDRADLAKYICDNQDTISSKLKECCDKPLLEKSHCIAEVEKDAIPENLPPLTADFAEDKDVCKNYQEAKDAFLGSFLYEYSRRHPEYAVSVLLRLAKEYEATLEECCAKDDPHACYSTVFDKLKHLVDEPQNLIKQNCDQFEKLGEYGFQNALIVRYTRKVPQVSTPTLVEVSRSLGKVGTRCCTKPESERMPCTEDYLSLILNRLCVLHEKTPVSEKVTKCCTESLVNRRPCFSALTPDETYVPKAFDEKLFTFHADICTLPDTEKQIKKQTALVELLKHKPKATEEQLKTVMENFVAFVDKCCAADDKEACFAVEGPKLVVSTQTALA
Protocol: The reaction was terminated by the addition of 10 μL of 1 M Tris-HCl (pH=7.0). Then, size exclusion chromatography was performed using Superdex™ 200 10/30GL 1.0 cm in diameter×30 cm (GE Healthcare Japan Corp.); flow rate: 0.3 ml/min; running buffer: PBS pH 7.4. Assay was conducted using a fluorescence detector RF-10A (Shimadzu Corp.) (excitation light: 541 nm, fluorescence: 565 nm).

human IgG Fc = target: T2, human IgG Fc (human, UniProt P01857-1 108-330 = IgG part); assay: X-ray crystal structure of the Fc/peptide complex
T2 construct: domain: Fc; also called human IgG1 Fc
Protocol: 70 μL of the crystallizing agent was dispensed thereto as a reservoir solution. The plate was hermetically sealed using PowerSeal CRISTAL VIEW (manufactured by Greiner Bio-One Co., Ltd.) and then left standing for approximately 2 weeks in a thermostat bath of 20° C. to obtain crystals.
The assay was carried out at an X-ray wavelength of 1 angstrom and an angle of oscillation of 1°/frame. Next, the diffraction intensity data was processed at a resolution of 3.0 angstroms using a diffraction intensity data processing program HKL2000 (manufactured by HKL Research Inc.).
A Fc moiety model registered as PDB accession code: 1DN2 in the Protein Data Bank (PDB, URL: http://www.rcsb.org/pdb/) was utilized as a search model for the molecular replacement method.

binding result (bovine serum albumin): no binding
B1: fluorescent (5/6 TAMRA-PEG4) IgG-binding peptide modified with DSG (peptide)
peptide: GPDCAYHXGELVWCTFH
modifications: X at position 8 (lysine in Type I(R8K)) modified with DSG; N-terminal amino-PEG4 modified with 5/6 TAMURA succinimidyl ester (fluorescent dye); C-terminal amide; intramolecular S-S bond
notes: also called DSG-cross-linked peptide

binding result (bovine serum albumin): no binding
B2: fluorescent (5/6 TAMRA-PEG4) IgG-binding peptide modified with DSS (peptide)
peptide: GPDCAYHXGELVWCTFH
modifications: X at position 8 (lysine in Type I(R8K)) modified with DSS; N-terminal amino-PEG4 modified with 5/6 TAMURA succinimidyl ester (fluorescent dye); C-terminal amide; intramolecular S-S bond
notes: also called DSS-crosslinked peptide

binding result (human IgG Fc): binds
B3: cyclic homocysteine peptide G(HC)DCAYHRGELVWCT(HC)H-NH2 (peptide)
peptide: G[hCys]DCAYHRGELVWCT[hCys]H-NH2
modifications: disulfide 4-14, 2-16; N-terminus assumed
SMILES: CC(C)C[C@@H]1NC(=O)[C@H](CCC(=O)O)NC(=O)CNC(=O)[C@H](CCCNC(=N)N)NC(=O)[C@H](Cc2c[nH]cn2)NC(=O)[C@H](Cc2ccc(O)cc2)NC(=O)[C@H](C)NC(=O)[C@@H]2CSSC[C@H](NC(=O)[C@H](Cc3c[nH]c4ccccc34)NC(=O)[C@H](C(C)C)NC1=O)C(=O)N[C@@H]([C@@H](C)O)C(=O)N[C@H](C(=O)N[C@@H](Cc1c[nH]cn1)C(N)=O)CCSSCC[C@H](NC(=O)CN)C(=O)N[C@@H](CC(=O)O)C(=O)N2
notes: Peptide put into the crystals with Fc; Residue numbers in the text (Arg8) count on the 17-residue peptide
